Km, kcat and kcat/Km data for 2 proteins are collected here from paper PMC5954133, “Functional Characterization of a Small Alarmone Hydrolase in Corynebacterium glutamicum” (Frontiers in Microbiology, 2018).

Holding throughout (experiment): HPLC-UV pyrophosphohydrolase assay, Eadie-Hofstee
Common to all, as to type: biochemical, Corynebacterium glutamicum

Substrate in data set [1]: Nc1nc2c(ncn2[C@@H]2O[C@H](COP(=O)(O)O)[C@@H](OP(=O)(O)OP(=O)(O)O)[C@H]2O)c(=O)[nH]1
The following applies: 1 mM MnCl2, 50 mM HEPES-Na pH 8.0, 200 mM NaCl, 30°C, substrate inhibition, approximate fit from lowest concentrations. An excerpt: (§1) HPLC-UV pyrophosphohydrolase assay, Eadie-Hofstee on RelCg

Substrate in data set [2]: Nc1nc2c(ncn2[C@@H]2O[C@H](COP(=O)(O)OP(=O)(O)O)[C@@H](OP(=O)(O)OP(=O)(O)O)[C@H]2O)c(=O)[nH]1
The following applies: 1 mM MnCl2, 50 mM HEPES-Na pH 8.0, 200 mM NaCl, 30°C, substrate inhibition, approximate fit from lowest concentrations.
Excerpt: as §1

Substrate in data set [3]: Nc1nc2c(ncn2[C@@H]2O[C@H](COP(=O)(O)OP(=O)(O)OP(=O)(O)O)[C@@H](OP(=O)(O)OP(=O)(O)O)[C@H]2O)c(=O)[nH]1
The following applies: 1 mM MnCl2, 50 mM HEPES-Na pH 8.0, 200 mM NaCl, 30°C, substrate inhibition, approximate fit from lowest concentrations, only two data points, no error analysis.
Excerpt: as §1

Substrate in data set [4]: Nc1nc2c(ncn2[C@@H]2O[C@H](COP(=O)(O)O)[C@@H](OP(=O)(O)OP(=O)(O)O)[C@H]2O)c(=O)[nH]1
Particulars: 1 mM MnCl2, 50 mM HEPES-Na pH 8.0, 200 mM NaCl, 30°C, substrate inhibition, approximate fit from lowest concentrations, only two data points, no error analysis. An excerpt:
(§2) HPLC-UV pyrophosphohydrolase assay, Eadie-Hofstee on […]

Substrate in data set [5]: Nc1nc2c(ncn2[C@@H]2O[C@H](COP(=O)(O)OP(=O)(O)O)[C@@H](OP(=O)(O)OP(=O)(O)O)[C@H]2O)c(=O)[nH]1
The following applies: 1 mM MnCl2, 50 mM HEPES-Na pH 8.0, 200 mM NaCl, 30°C, substrate inhibition, approximate fit from lowest concentrations.
Excerpt: as §2
This is another data set of the same source.

Substrate in data set [6]: Nc1nc2c(ncn2[C@@H]2O[C@H](COP(=O)(O)OP(=O)(O)OP(=O)(O)O)[C@@H](OP(=O)(O)OP(=O)(O)O)[C@H]2O)c(=O)[nH]1
Particulars: 1 mM MnCl2, 50 mM HEPES-Na pH 8.0, 200 mM NaCl, 30°C, substrate inhibition, approximate fit from lowest concentrations.
Excerpt: as §2

B1: RelCg (Corynebacterium glutamicum ATCC 13032) (protein)
chain: MSLERNTQKSSMGVRSMSARLARSLTGNRVRTNPVLDPLLSIHRQFHPRADVQVLERAYDTAERLHDGVIRKSGDPYITHPLAVATIAAEIGMDTTTLVAALLHDTVEDTDYSLDDLTRDFGEEVARLVDGVTKLDKVALGAAAEAETIRKMIVAMSQDPRVLVIKVADRLHNMRTMRFLPPEKQAKKARQTLEVIAPLAHRLGMASVKWELEDLSFAILYPKKYEEIVRLVADRAPSRDRYLKEIIDQVTGGLRENNIAAEVLGRPKHYWSIYQKMIVRGRDFDDIFDLVGIRILVDNVNNCYAAIGVVHSLFNALPGRFKDYISAPRFGVYQSLHTTVMGPGGKPLEVQARTHDMHYNAEFGIAAHWRYKETKGSHSGEQAEVDQMAWMRQLLDWQKEAADPNEFLDSLRYDLTSKQIFVFTPKGDVVNLPVNSTPVDFAYAVHTEVGHRCIGAKINGKLVALETKLKSGDRVEVFTSKDQNAGPSRGWQEFVVSPRAKAKIRQWFAKERREEYLEAGRDALAAVIQRGGLPMHRLFTASSMKTVATELHYPDVDALYTAIGSGSVSAQHVVNRLMAIFGDEEDAEDALVARTPFSELVNSRATTESSTGILVEGSPDVMAKLAKCCMPVPGDEIFGFVTRGGGVSVHRTDCTNVEKLKEEPERIVSVSWASEGQGSVFSATLQLEALDRAGLLFELTRVINEQKVSVTAMNSHCSEDRVATVRFTFAVSDTKQLGSLMTQLRNAEGVFDVYRVTSGG
notes: full-length bifunctional RSH; expressed in E. coli ER2566
Regarding B1, in data set [1], the Michaelis-Menten constant (Km) was found to be 0.734 ± 0.127 mM, the kcat came out at 0.794 ± 0.071 s⁻¹ and the kcat/Km turned out to be 1080 M⁻¹ s⁻¹. In data set [2], the Michaelis constant (Km) stood at 0.511 ± 0.01 mM, the kcat came to 0.296 ± 0.004 s⁻¹ and the kcat/Km is 579 M⁻¹ s⁻¹. Besides, in data set [3], the Km was found to be 0.422 mM, the kcat was found to be 0.563 s⁻¹ and the kcat/Km amounted to 1340 M⁻¹ s⁻¹.

B2: RelHCg (Corynebacterium glutamicum ATCC 13032) (protein)
chain: MNTLSPRLRKAMNTAAWAHRHHVRKGGGIPYVSHLYSVMYLLASVTNDEDVLIAGLLHDTLEDVPEEYNSAQLEADFGPRVRELVEELTKQPLKSWKARADAYLLHLSAGASLEAVLISTADKLHNLMSILDDLEIHGEDLWQRFNAGKEQQIWWYSEVYQISLQRLGFNELNKQLGLCVEKLLKQSA
notes: full-length; expressed in E. coli ER2566
As for B2, in data set [4], the Km is given as 0.144 mM, the kcat is 0.294 s⁻¹ and the kcat/Km came to 2040 M⁻¹ s⁻¹. For the same protein, in data set [5], the Km came out at 0.101 ± 0.007 mM, the kcat was determined as 0.502 ± 0.018 s⁻¹ and the kcat/Km was found to be 4970 M⁻¹ s⁻¹. For the same protein, in data set [6], the Km is recorded as 0.09 ± 0.011 mM, the kcat is 0.09 ± 0.003 s⁻¹ and the kcat/Km turned out to be 1010 M⁻¹ s⁻¹.

One may read the Km as the substrate concentration at which the rate is half of its maximum. What is called kcat is the number of substrate molecules converted per active site and unit of time at saturation. A word on the kcat/Km: it is the turnover number divided by the Michaelis constant.
